Data as given in patent publication US20210122826A1 (MIT, published 2021).

Assays:
Test in all cases: flow, Jurkat
Human CD94 = target: T1, Human CD94 (human, UniProt Q13241 1-179)
T1 construct: also called hCD94
T1 sequence: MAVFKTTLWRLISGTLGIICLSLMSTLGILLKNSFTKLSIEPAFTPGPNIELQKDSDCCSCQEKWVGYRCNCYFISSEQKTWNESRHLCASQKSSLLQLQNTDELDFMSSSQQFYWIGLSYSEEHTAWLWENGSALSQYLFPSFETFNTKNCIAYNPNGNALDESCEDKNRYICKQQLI

Human Clec4E = target: T2, Human Clec4E (human, UniProt Q9ULY5 1-219)
T2 construct: also called hClec4E
T2 sequence: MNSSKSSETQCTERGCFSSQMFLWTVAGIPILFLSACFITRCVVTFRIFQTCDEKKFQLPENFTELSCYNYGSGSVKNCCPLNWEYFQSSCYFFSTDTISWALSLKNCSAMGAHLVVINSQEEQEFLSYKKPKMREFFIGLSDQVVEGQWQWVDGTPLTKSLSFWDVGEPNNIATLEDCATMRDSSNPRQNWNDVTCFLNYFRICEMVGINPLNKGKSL

Human KLRF1 = target: T3, Human KLRF1 (human, UniProt Q9NZS2 1-231)
T3 construct: also called hKLRF1
T3 sequence: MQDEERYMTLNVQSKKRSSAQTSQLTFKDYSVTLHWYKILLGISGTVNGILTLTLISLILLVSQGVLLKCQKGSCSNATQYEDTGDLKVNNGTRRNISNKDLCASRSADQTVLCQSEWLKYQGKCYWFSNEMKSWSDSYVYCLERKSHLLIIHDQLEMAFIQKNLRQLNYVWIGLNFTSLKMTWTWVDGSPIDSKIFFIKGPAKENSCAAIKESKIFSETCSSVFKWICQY

Human Clec12B = target: T4, Human Clec12B (human, UniProt Q2HXU8 1-276)
T4 construct: also called hClec12B
T4 sequence: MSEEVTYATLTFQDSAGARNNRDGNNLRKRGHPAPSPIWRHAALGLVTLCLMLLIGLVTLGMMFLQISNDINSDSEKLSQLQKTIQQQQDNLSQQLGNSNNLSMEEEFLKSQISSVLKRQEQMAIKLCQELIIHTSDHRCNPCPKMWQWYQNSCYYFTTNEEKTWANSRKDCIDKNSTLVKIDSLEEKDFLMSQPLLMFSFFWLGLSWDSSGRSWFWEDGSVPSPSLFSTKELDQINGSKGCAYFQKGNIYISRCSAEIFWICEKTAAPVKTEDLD

Human Clec10A = target: T5, Human Clec10A (human, UniProt Q8IUN9 1-316)
T5 construct: also called hClec10A
T5 sequence: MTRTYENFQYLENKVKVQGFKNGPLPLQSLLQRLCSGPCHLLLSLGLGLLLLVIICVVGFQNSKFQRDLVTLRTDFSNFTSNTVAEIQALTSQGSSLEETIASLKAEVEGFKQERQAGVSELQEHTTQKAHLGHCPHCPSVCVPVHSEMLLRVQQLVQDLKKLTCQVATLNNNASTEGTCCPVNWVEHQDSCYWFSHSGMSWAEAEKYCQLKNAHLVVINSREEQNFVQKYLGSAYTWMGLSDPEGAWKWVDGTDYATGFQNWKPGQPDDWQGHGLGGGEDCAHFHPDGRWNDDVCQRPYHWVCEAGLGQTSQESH

Human Clec9A = target: T6, Human Clec9A (human, UniProt Q6UXN8 1-241)
T6 construct: also called hClec9A

Human Clec7A = target: T7, Human Clec7A (human, UniProt Q9BXN2 1-247)
T7 construct: also called hClec7A
T7 sequence: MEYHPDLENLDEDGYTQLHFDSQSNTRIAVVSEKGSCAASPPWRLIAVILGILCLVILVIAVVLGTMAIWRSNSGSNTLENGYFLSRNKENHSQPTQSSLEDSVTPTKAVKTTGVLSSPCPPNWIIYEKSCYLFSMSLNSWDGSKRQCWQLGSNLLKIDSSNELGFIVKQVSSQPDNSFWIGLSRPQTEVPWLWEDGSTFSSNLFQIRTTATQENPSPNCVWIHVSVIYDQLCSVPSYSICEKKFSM

Human KLRG1 = target: T8, Human KLRG1 (human, UniProt Q96E93 1-195)
T8 construct: also called hKLRG1
T8 sequence: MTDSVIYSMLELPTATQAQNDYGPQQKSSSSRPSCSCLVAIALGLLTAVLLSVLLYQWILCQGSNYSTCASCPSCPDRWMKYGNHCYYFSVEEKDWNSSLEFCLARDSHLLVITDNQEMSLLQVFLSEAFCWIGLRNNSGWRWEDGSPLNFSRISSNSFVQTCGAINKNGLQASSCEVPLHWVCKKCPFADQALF

Human OLR1 = target: T9, Human OLR1 (human, UniProt P78380 1-273)
T9 construct: also called hOLR1

Human Clec5A = target: T10, Human Clec5A (human, UniProt Q9NY25 1-188)
T10 construct: also called hClec5A
T10 sequence: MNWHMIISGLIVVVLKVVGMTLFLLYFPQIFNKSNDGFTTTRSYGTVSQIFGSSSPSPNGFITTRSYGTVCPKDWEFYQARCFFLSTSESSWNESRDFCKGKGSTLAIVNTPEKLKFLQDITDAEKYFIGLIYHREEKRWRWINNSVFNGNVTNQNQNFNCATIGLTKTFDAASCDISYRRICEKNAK

Human KLRF2 = target: T11, Human KLRF2 (human, UniProt D3W0D1 1-207)
T11 construct: also called hKLRF2
T11 sequence: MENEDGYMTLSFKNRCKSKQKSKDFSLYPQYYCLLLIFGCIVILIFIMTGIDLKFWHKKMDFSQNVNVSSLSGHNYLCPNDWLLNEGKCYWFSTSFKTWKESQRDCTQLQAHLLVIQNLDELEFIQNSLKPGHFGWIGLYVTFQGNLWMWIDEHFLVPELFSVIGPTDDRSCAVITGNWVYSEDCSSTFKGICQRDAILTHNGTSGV

Human CD209 = target: T12, Human CD209 (human, UniProt Q9NNX6 1-404)
T12 construct: also called hCD209
T12 sequence: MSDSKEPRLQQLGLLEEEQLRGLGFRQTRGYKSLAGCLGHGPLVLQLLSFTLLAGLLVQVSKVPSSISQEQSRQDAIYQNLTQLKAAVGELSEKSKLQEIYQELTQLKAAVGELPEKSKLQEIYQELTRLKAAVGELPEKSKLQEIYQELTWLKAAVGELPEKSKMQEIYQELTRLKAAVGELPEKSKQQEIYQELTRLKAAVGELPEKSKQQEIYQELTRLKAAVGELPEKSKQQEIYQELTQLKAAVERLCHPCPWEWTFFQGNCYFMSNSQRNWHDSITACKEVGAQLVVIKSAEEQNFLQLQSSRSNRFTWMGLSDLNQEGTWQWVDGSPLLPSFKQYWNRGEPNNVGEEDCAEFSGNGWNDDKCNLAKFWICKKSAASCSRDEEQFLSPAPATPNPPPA

Measured: binding result

T6 sequence (Q6UXN8 whole entry): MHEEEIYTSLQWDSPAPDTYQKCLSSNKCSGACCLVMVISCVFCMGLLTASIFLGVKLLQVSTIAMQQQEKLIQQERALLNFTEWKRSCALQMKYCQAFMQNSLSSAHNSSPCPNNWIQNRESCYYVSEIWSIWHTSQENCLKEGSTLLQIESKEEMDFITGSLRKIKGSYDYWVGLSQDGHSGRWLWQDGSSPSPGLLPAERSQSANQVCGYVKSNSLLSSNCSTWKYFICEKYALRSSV

B1: KW1.2.1 (antibody, V domains shown)
VH: EVQLVESGGGLVQPGGSLRLSCAASGSTFSSYAMSWVRQAPGKGLEWVSTISGSGGSTYYADSVKGRFTISRDNSRNTLYLQMNSLRAEDTAVYYCARGGLIPSGFDYWGQGTLVTVSS
VL: DIQMTQSPSSPSASVGDRVTITCRASQSISSYLNWYQQKPGKAPKLLIYAASSLLSGVPSRFSGSGSGTDFTLTISSLQPEDFATYYCQQTYSTPLTFGQGTKVEIK
no binding (tested: 100 nM): Human CD94 | Human Clec4E | Human KLRF1 | Human Clec12B | Human Clec10A | Human Clec9A | Human Clec7A | Human KLRG1 | Human OLR1 | Human Clec5A | Human KLRF2 | Human CD209

B2: KW1.3.12 (antibody, human IgG1, V domains shown)
VH: EVQLVESGGGLVQPGGSLRLSCAASGFTFSSYAMSWVRQAPGKGLEWVSTISGSGGSTYYADSVKGRFTISRDNSRNTLYLQMNSLRAEDTAVYYCARGGLIPSGFDYWGQGTLVTVSS
VL: DIQMTQSPSSLSASVGDRVTITCRASQSISSYLNWYQQKPGKAPKLLIYAASSLLSGVPSRFSGSGSGTDFTLTISSLQPEDFATYYCQQTYSAPLTFGQGTKVEIK
no binding (tested: 100 nM): Human CD94 | Human Clec4E | Human KLRF1 | Human Clec12B | Human Clec10A | Human Clec9A | Human Clec7A | Human KLRG1 | Human OLR1 | Human Clec5A | Human KLRF2 | Human CD209

B3: KW7.2.2 (antibody, V domains shown)
VH: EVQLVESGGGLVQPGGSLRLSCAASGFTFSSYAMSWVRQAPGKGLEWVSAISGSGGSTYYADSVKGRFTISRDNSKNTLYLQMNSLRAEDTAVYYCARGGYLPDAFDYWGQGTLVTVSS
VL: DIQMTQSPSSLSASVGDRVTITCRASQSISSYLNWYQQKPGKAPRFLIYAASSLQSGVPSRFSGSGSGTDFTLTISSLQPEDFATYYCQQTYSTPLTFGQGTKVEIK
no binding (tested: 100 nM): Human CD94 | Human Clec4E | Human KLRF1 | Human Clec12B | Human Clec10A | Human Clec9A | Human Clec7A | Human KLRG1 | Human OLR1 | Human Clec5A | Human KLRF2 | Human CD209

B4: KW7.3.7 (antibody, V domains shown)
VH: EVQLVESGGGLVQPGGSLRLSCAASGFTFSSYAMSWVRQAPGKGLEWVSATSGSGGSTYYADSAKGRFTISRDNSKNTLYLQMNSLRAEDTAVYYCARGGYLPDAFDYWGRGTLVTVSS
VL: DIQMTQSPSSLSASVGDRVTITCWASQSISSYLNWYQQEPGKAPKLLIYAASSLQSGVPSRFSGSGSGTDFTLTISSLQPEDFATYYCQQTYSTPLTFGQGTKVEIK
no binding (tested: 100 nM): Human CD94 | Human Clec4E | Human KLRF1 | Human Clec12B | Human Clec10A | Human Clec9A | Human Clec7A | Human KLRG1 | Human OLR1 | Human Clec5A | Human KLRF2 | Human CD209
